The text below walks through data of the RNAGym collection of RNA variant scans (doi:10.1093/molbev/msab373).

The chains are these.
B1: Azoarcus group I ribozyme (parent)
chain: GUGCCUUGCGCCGGGAAACCACGCAAGGGAUGGUGUCAAAUUCGGCGAAACCUAAGCGCCCGCCCGGGCGUAUGGCAACGCCGAGCCAAGCUUCGGCGCCUGCGCCGAUGAAGGUGUAGAGACUAGACGGCACCCACCUAAGGCAAACGCUAUGGUGAAGGCAUAGUCCAGGGAGUGGCGAAAGUCACACAAACCGG

In the data set the parent is B1. Nature of the data set: reverse-splicing fitness (ratio to wild type); higher = more active; in vitro selection; Mg2+ level not given. In outline:
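An in vitro group I ribozyme library with randomized positions was T7-transcribed and gel-purified. In triplicate, 10 pmol RNA in EPPS pH 7.5 was reacted with 50 pmoles of a 30-nt RNA substrate for 1 h at 37 °C across several added MgCl2 levels (1–48 mM), then stopped with EDTA. Products were reverse transcribed from a substrate-complementary primer, PCR-amplified and sequenced (HiSeq 4000). Fitness is a variant's read proportion after selection over that before, normalised to wild type.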
As to C82G A120C A145C C169A, the reverse-splicing fitness stood at 0.00704.
For the variant C82G A120C A145C C169G, the reverse-splicing fitness amounted to 0.00864.
Then C82G A120C C150U U176G, with 0.0136; and C82G A120C C150U U176A, with 0.0429; and C82G A120C C150U U176C, with 0.0574.
C82G A111U A145U C169U U176C: the reverse-splicing fitness was determined as 0.0128.
For C82G A111U A145U C169U U176G, the reverse-splicing fitness was determined as 0.00509.
Take C82G A111U A145U C169U U176A: the reverse-splicing fitness is 0.0146.
For C82G A120C A145U C169U, the reverse-splicing fitness was 0.0247.
Then C82G A120C A145U C169A, with 0.00673; and C82G A120C A145U C169G, with 0.0068.
Take C82G A120C: the reverse-splicing fitness turned out to be 0.208.
With C82G A120C A145C C150G C169U U176A, the reverse-splicing fitness stood at 0.00765.
Take C82G A120C A145C C150G C169U U176G: the reverse-splicing fitness amounted to 0.00406.
With C82G A120C A145C C150G C169U U176C, the reverse-splicing fitness is 0.0116.
For the variant C82G A120C A145U C150U C169A U176G, the reverse-splicing fitness was 0.00538.
As for C82G A120C A145U C150U C169A U176C, the reverse-splicing fitness was 0.00984.
With C82G A120C A145U C150U C169A U176A, the reverse-splicing fitness came out at 0.015.
As for C82G A111U C150A U176G, the reverse-splicing fitness came to 0.0138.
Consider C82G A111U C150A U176A, for which the reverse-splicing fitness is 0.025.
With C82G A111U C150A U176C, the reverse-splicing fitness turned out to be 0.0357.
For C82G A111U C150U C169A U176G, the reverse-splicing fitness is 0.00647.
Then C82G A111U C150U C169A U176A, with 0.0188; and C82G A111U C150U C169A U176C, with 0.0148.
On to C82G A120C A145C C150A C169U, for which the reverse-splicing fitness is 0.00799.
In the case of C82G A120C A145C C150A C169A, the reverse-splicing fitness turned out to be 0.00726.
Turning to C82G A120C A145C C150A C169G, the reverse-splicing fitness is 0.00715.
Then C82G A120C C150G C169A, with 0.00942; and C82G A120C C150G C169U, with 0.0121; and C82G A120C C150G C169G, with 0.00797.
For the variant C82G A111U A145U U176G, the reverse-splicing fitness came to 0.0842.
As for C82G A111U A145U U176C, the reverse-splicing fitness was found to be 0.246.
Consider C82G A111U A145U U176A, for which the reverse-splicing fitness was determined as 0.211.
As to C82G A120C A145U C150A U176G, the reverse-splicing fitness was determined as 0.00735.
C82G A120C A145U C150A U176C: the reverse-splicing fitness is 0.0216.
As for C82G A120C A145U C150A U176A, the reverse-splicing fitness was found to be 0.0188.
The figure for C82G A120C C169G is 0.00817.
Take C82G A120C C169A: the reverse-splicing fitness was determined as 0.00902.
As for C82G A120C A145C U176G, the reverse-splicing fitness turned out to be 0.0157.
C82G A120C A145C U176A: the reverse-splicing fitness came out at 0.0678.
Turning to C82G A120C A145C U176C, the reverse-splicing fitness stood at 0.0842.
As to C82G A120C C150A, the reverse-splicing fitness amounted to 0.0228.
The figure for C82G A120C C150G is 0.0159; for C82G A120C C150U it is 0.108.
On to C82G A120C A145U C150A C169A U176C, for which the reverse-splicing fitness was found to be 0.0107.
In the case of C82G A120C A145U C150A C169A U176A, the reverse-splicing fitness is 0.0178.
Regarding C82G A120C A145U C150A C169A U176G, the reverse-splicing fitness came to 0.00421.
On to C82G A120C A145C C150G U176C, for which the reverse-splicing fitness was found to be 0.0144.
C82G A120C A145C C150G U176A: the reverse-splicing fitness was 0.00907.
Take C82G A120C A145C C150G U176G: the reverse-splicing fitness was 0.00422.
Then C82G A120C A145G C150G C169U U176C, with 0.0134; and C82G A120C A145G C150G C169U U176G, with 0.00789; and C82G A120C A145G C150G C169U U176A, with 0.0128.
Then C82G A111U C150A C169A U176A, with 0.0193.
As to C82G A111U C150A C169A U176G, the reverse-splicing fitness came out at 0.00814.
Then C82G A111U C150A C169A U176C, with 0.0206; and C82G A120C A145C C150G C169G U176C, with 0.00954.
In the case of C82G A120C A145C C150G C169G U176A, the reverse-splicing fitness stood at 0.0101.
C82G A120C A145C C150G C169G U176G: the reverse-splicing fitness is 0.00536.
Consider C82G A120C A145C C150U C169A U176A, for which the reverse-splicing fitness is 0.0117.
For the variant C82G A120C A145C C150U C169A U176G, the reverse-splicing fitness is 0.00525.
Turning to C82G A120C A145C C150U C169A U176C, the reverse-splicing fitness came out at 0.00587.
Then C82G A111U C150U, with 0.192; and C82G A111U C150G, with 0.0227.
Take C82G A111U C150A: the reverse-splicing fitness is 0.0323.
In the case of C82G A111U A145U C169G U176G, the reverse-splicing fitness worked out at 0.00618.
Turning to C82G A111U A145U C169G U176C, the reverse-splicing fitness was 0.0128.
Then C82G A111U A145U C169G U176A, with 0.0122.
Regarding C82G A120C A145G C150A U176A, the reverse-splicing fitness stood at 0.0196.
As to C82G A120C A145G C150A U176C, the reverse-splicing fitness was 0.034.
With C82G A120C A145G C150A U176G, the reverse-splicing fitness worked out at 0.0102.
For C82G A111U A145U C150U U176G, the reverse-splicing fitness was found to be 0.043.
The figure for C82G A111U A145U C150U U176A is 0.124.
Then C82G A111U A145U C150U U176C, with 0.152.
With C82G A111U C150G C169A U176G, the reverse-splicing fitness was 0.00732.
Take C82G A111U C150G C169A U176A: the reverse-splicing fitness is 0.011.
The figure for C82G A111U C150G C169A U176C is 0.0132.
For the variant C82G A120C A145U C150G C169A, the reverse-splicing fitness stood at 0.00974.
Regarding C82G A120C A145U C150G C169G, the reverse-splicing fitness was found to be 0.00766.
C82G A120C A145U C150G C169U: the reverse-splicing fitness was 0.0102.
With C82G A111U U176A, the reverse-splicing fitness came out at 0.214.
In the case of C82G A111U U176G, the reverse-splicing fitness was determined as 0.0695.
For C82G A111U U176C, the reverse-splicing fitness is 0.259.
On to C82G A120C A145C C150A C169G U176A, for which the reverse-splicing fitness was found to be 0.0302.
